Measurements from patent publication US20250235545A1, “POLYPEPTIDE CONJUGATE AND USE THEREOF” (SHANGHAI CHIXI BIOMEDICAL TECHNOLOGY CO., LTD, priority 2024, published 2025).
Values after ≈ are worked out from the molar mass of the structure shown. Where two headings read alike, the source gives them in different places. Where a SMILES comes first, the peptide text is derived from it. The star is where a group is joined. Belotecan = CC[C@@]1(O)C(=O)OCc2c1cc1n(c2=O)Cc2c-1nc1ccccc1c2CCN(C(C)C)*; X8 = CC[C@@]1(O)C(=O)OCc2c1cc1n(c2=O)Cc2c-1nc1ccccc1c2CCN(C1CCCC1)*; X7 = CC[C@@]1(O)C(=O)OCc2c1cc1n(c2=O)Cc2c-1nc1ccccc1c2CCN(C)*; Propanoyl(3-maleimido) = O=C1C=CC(=O)N1CCC(=O)*; PEG6 = NCCOCCOCCOCCOCCOCCOCCC(=O)O

How the values were obtained:
[1] = tested on: A2780 (ovarian cancer); experiment: cells; format: cell-based; conditions: CCK8, 48 h; Table 6
In short: (§1)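 Tumour cells grow for 48 h with the compounds at several concentrations (5,000 cells/well, triplicate, 37° C, 5% CO2), in serum-supplemented RPMI1640 or high-glucose DMEM. Viability is measured with CCK8 reagent at 450 nm, and IC50 is calculated.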

[2] = tested on: A549 (non-small cell lung cancer); experiment: cells; format: cell-based; conditions: CCK8, 48 h; Table 6
In short: as §1

[3] = tested on: SJSA-1 (sarcoma tissue); experiment: cells; format: cell-based; conditions: CCK8, 48 h; Table 6
In short: as §1

[4] = tested on: SKBR3 (breast cancer tissue); experiment: cells; format: cell-based; conditions: CCK8, 48 h; Table 6
In short: as §1

[5] = tested on: colo320 (colorectal cancer tissue); experiment: cells; format: cell-based; conditions: CCK8, 48 h; Table 6
Protocol: Different types of cells were cultured with complete media (RPMI1640 (DMEM high sugar medium)+10% fetal bovine serum+1×P/S+sodium pyruvate 1 mM solution) in an incubator at 37° C. and 5% CO2 until the cells grew to a sufficient number, and the cells were collected, centrifuged at 1,000 g for 5 min, resuspended with an appropriate volume of a 10% RMPI1640 (DMEM high sugar medium) medium and adjusted to an appropriate density. In a 96-well culture plate, 100 μL of cell culture fluid containing different concentrations of drugs was added, control wells (0.1% DMSO) with only corresponding drug solvents without drugs, as well as blank wells (Blank) with only the medium but without cells were set, and three parallel wells were set in each group. After that, the cells after cell counting were inoculated onto 96-well culture plates, with 100 μL of cell suspension per well, and an inoculation concentration of the cells was 5,000 cells (100 μL)/well. The plates were then cultured in a CO2 (5%) incubator at 37° C. for 48 h. After 48 h, 10 μL of a cell proliferation staining reagent (CCK8) was added to each well, the plates were incubated in a cell incubator for around 2 h, and an absorbance at 450 nm was detected.
Cell survival rates and median inhibitory concentrations (IC50) of the drugs on the cells were calculated.

[6] = tested on: sarcoma SJSA-1 tumor model; conditions: Table 7
In short: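 SJSA-1 cells (2×10^7, DMEM/10% FBS, under 15 passages) implanted subcutaneously in right chest of female BALB/c nude mice, 6-8 weeks old. At ≥100 mm^3, randomized three per group; dosing once weekly for three weeks, saline as control, day 1 = first treatment.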

[7] = tested on: colo320 colorectal cancer tumor model
In short: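 Female BALB/c nude mice, 6–8 weeks old, received 7.5×10^6 colo320 cells subcutaneously in the right chest. Once tumors reached at least 120 mm^3 they were randomized three per group. Treatment with test agents or saline control was given once weekly for four weeks.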

[8] = tested on: sarcoma SJSA-1 tumor model; experiment: Efficacy in animal model of sarcoma SJSA-1, 30 mg/kg once a week for two weeks (Example 40); format: in vivo, BALB/c mice; conditions: 30 mg/kg once a week for two weeks; Day 14
Protocol: Test objective: To further compare the antitumor efficacy of different polypeptide Linkers in an animal tumor model of sarcoma SJSA-1.
Test drug: Polypeptide conjugate and normal saline control group.
The control group was administered normal saline. Administration was performed once a week for two weeks.

[9] = MTD determination in mice (Examples 27, 36, 44); format: in vivo; conditions: female, mouse, in vivo; mice, monitored for 14 d; Table 9
Description: Test animals: 6-8 weeks old mice, all female; mice were grouped randomly, with six mice in each group, administered with drugs at different concentration gradients separately and monitored for 14 d. A mouse was euthanized at a loss of 20% of its initial weight and deemed to have died of poisoning.

[10] = Tumor homogenate activation efficiency, ovarian cancer tissue (Examples 28, 37); format: in vitro ADME; conditions: pH 5.0, 37° C., 2 h; Table 10
In short: (§2)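 1 mg/ml conjugate, pH 5.0 (50 mM MES, 250 mM NaCl); + 100 μg tissue homogenate; 37° C, 2 h. HPLC, release = Belotecan area / total Belotecan-containing area.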

[11] = Tumor homogenate activation efficiency, sarcoma tissue (Examples 28, 37); format: in vitro ADME; conditions: pH 5.0, 37° C., 2 h; Table 10
In short: as §2

[12] = Tumor homogenate activation efficiency, breast cancer tissue (Examples 28, 37); format: in vitro ADME; conditions: pH 5.0, 37° C., 2 h; Table 10
In short: as §2

[13] = Tumor homogenate activation efficiency, non-small cell lung cancer tissue (Examples 28, 37); format: in vitro ADME; conditions: pH 5.0, 37° C., 2 h; Table 10
In short: as §2

[14] = Tumor homogenate activation efficiency, colorectal cancer tissue (Example 37); format: in vitro ADME; conditions: pH 5.0, 37° C., 2 h; Table 10
Protocol: Buffer preparation: 50 mM PH buffer (MES), 250 mM NaCl, pH adjusted to 5.0 with 0.5 M of sodium hydroxide.
The polypeptide conjugate was prepared into a 1 mg/ml solution with pH 5.0 buffer, 100 μg of tumor tissue homogenate was added, (the tumor tissue homogenate was the homogenate of tumor tissues prepared with a Jingxin F6/10 handheld homogenizer), and the solution was placed at 37° C. for 2 h. The tumor tissue homogenate could effectively activate the polypeptide conjugate and release Belotecan, and the activation efficiencies of the drugs in tumor tissues were compared by HPLC allowing determination of a decrease in the compounds and an increase in Belotecan:
Release percentage=peak area of Belotecan/total peak area of Belotecan and all other Belotecan-containing compounds

[15] = Homogenate activation efficiency, heart tissue (Examples 28, 37); format: in vitro ADME; conditions: pH 5.0, 37° C., 2 h; Table 10
[16] = 15 mg/kg once a week for three weeks
[17] = 45 mg/kg once a week for three weeks
[18] = 15 mg/kg once a week for four weeks, Table 8
[19] = 45 mg/kg once a week for four weeks, Table 8
[20] = Table 14 (Example 43), dose 45 mg/kg, once a week for four weeks, BALB/c mice
[21] = Table 13 (Example 42), dose 45 mg/kg, once a week for four weeks, BALB/c mice

Row | Compound | IC50 Ovarian cancer tissue (A2780) [1] [µg/mL] | IC50 Non-small cell lung cancer tissue (A549) [2] [µg/mL] | IC50 Sarcoma tissue (SJSA-1) [3] [µg/mL] | IC50 Breast cancer tissue (SKBR3) [4] [µg/mL] | IC50 Colorectal cancer tissue (colo320) [5] [µg/mL] | Mouse weight (%) [6, 16] | Mouse weight (%) [6, 17] | Mouse weight (%) [7, 18] | Mouse weight (%) [7, 19] | Mouse weight (%) [7, 20] | MTD at 14 d [9] [mg/kg] | Percentage of release efficiency (%) Ovarian cancer tissue (A2780) [10] [%] | Percentage of release efficiency (%) Sarcoma tissue (SJSA1) [11] [%] | Percentage of release efficiency (%) Breast cancer tissue (SKBR3) [12] [%] | Percentage of release efficiency (%) Non-small cell lung cancer tissue (A549) [13] [%] | Percentage of release efficiency (%) Colorectal cancer tissue (colo320) [14] [%] | Percentage of release efficiency (%) Heart tissue [15] [%] | SJSA-1 (sarcoma tissue) growth rate (%) [6, 17] [%] | SJSA-1 (sarcoma tissue) mean tumor volume (mm^3) [6, 17] [mm^3] | colo320 (colorectal cancer cell) growth rate (%) [7, 19] [%] | other results
1 | CC[C@@]1(O)C(=O)OCc2c1cc1n(c2=O)Cc2c-1nc1ccccc1c2CCN(C(=O)[C@H](CC(C)C)NC(=O)[C@H](CC(N)=O)NC(=O)[C@H](C)NC(=O)[C@H](C)NC(=O)CCOCCOCCOCCOCCOCCOCCNC(=O)CCN1C(=O)C=CC1=O)C(C)C [MI-6PEG-AANL-Belotecan] ({Propanoyl(3-maleimido)-PEG6}-AANL-Belotecan) | 0.91 (≈ 0.706 µM) | 1.55 (≈ 1.2 µM) | 0.90 (≈ 0.698 µM) | 2.48 (≈ 1.92 µM) | 2.74 (≈ 2.12 µM) | +24% | +21% | +22% | +2% | +2% | 150 | 81.2 | 75.5 | 69.5 | 76.5 | 75.6 | 2.5 | – | – | – | Mouse weight (%) on Day 14 [8]: −1.3%
2 | CC[C@@]1(O)C(=O)OCc2c1cc1n(c2=O)Cc2c-1nc1ccccc1c2CCN(C)C(=O)[C@H](CC(C)C)NC(=O)[C@H](CC(N)=O)NC(=O)[C@H](C)NC(=O)[C@H](C)NC(=O)CCOCCOCCOCCOCCOCCOCCNC(=O)CCN1C(=O)C=CC1=O [MI-6PEG-AANL-D1] ({Propanoyl(3-maleimido)-PEG6}-AANL-X7) | 2.09 (≈ 1.66 µM) | 3.05 (≈ 2.42 µM) | 2.33 (≈ 1.85 µM) | 3.25 (≈ 2.58 µM) | 3.82 (≈ 3.03 µM) | – | +29% | – | +16% | +16% | 200 | 66.4 | 81.2 | 80 | 69.5 | 72.4 | 3 | – | – | – | –
3 | CC[C@@]1(O)C(=O)OCc2c1cc1n(c2=O)Cc2c-1nc1ccccc1c2CCN(C(=O)[C@H](CC(C)C)NC(=O)[C@H](CC(N)=O)NC(=O)[C@H](C)NC(=O)[C@H](C)NC(=O)CCOCCOCCOCCOCCOCCOCCNC(=O)CCN1C(=O)C=CC1=O)C1CCCC1 [MI-6PEG-AANL-D8] ({Propanoyl(3-maleimido)-PEG6}-AANL-X8) | 1.27 (≈ 0.965 µM) | 2.27 (≈ 1.73 µM) | 1.54 (≈ 1.17 µM) | 1.98 (≈ 1.51 µM) | 2.97 (≈ 2.26 µM) | – | +17% | +33% | +15% | – | 200 | 71 | 81.1 | 70.2 | 68.4 | 78.9 | 2.2 | – | – | – | –
4 | CC[C@@]1(O)C(=O)OCc2c1cc1n(c2=O)Cc2c-1nc1ccccc1c2CCN(C(=O)[C@H](CC(C)C)NC(=O)[C@H](Cc1ccccc1)NC(=O)CNC(=O)CNC(=O)CCOCCOCCOCCOCCOCCOCCNC(=O)CCN1C(=O)C=CC1=O)C(C)C [MI-6PEG-GGFL-Belotecan] ({Propanoyl(3-maleimido)-PEG6}-GGFL-Belotecan) | 1.91 (≈ 1.48 µM) | 2.21 (≈ 1.71 µM) | 1.24 (≈ 0.958 µM) | 3.69 (≈ 2.85 µM) | 2.86 (≈ 2.21 µM) | +27% | +22% | +27% | +5% | +5% | 100 | 73.6 | 68 | 73.2 | 77.3 | 83.1 | 1.8 | 995.32 | 1254.1 | 671.56 | SJSA-1 (sarcoma tissue) growth rate (%) [6, 16]: 1134.95%; SJSA-1 (sarcoma tissue) mean tumor volume (mm^3) [6, 16]: 1278.6 mm^3; colo320 (colorectal cancer cell) growth rate (%) [7, 18]: 994.05%; colo320 (colorectal cancer cell) mean tumor volume (mm^3) [7, 18]: 1254.2 mm^3; colo320 (colorectal cancer cell) mean tumor volume (mm^3) [7, 19]: 789.4 mm^3; Mouse weight (%) [7, 21]: +5%; colo320 (colorectal cancer cell) growth rate (%) [7, 21]: 671.56%; colo320 (colorectal cancer cell) mean tumor volume (mm^3) [7, 21]: 789.4 mm^3; colo320 (colorectal cancer cell) growth rate (%) [7, 20]: 671.56%; colo320 (colorectal cancer cell) mean tumor volume (mm^3) [7, 20]: 789.4 mm^3
5 | CC[C@@]1(O)C(=O)OCc2c1cc1n(c2=O)Cc2c-1nc1ccccc1c2CCN(C)C(=O)[C@H](CC(C)C)NC(=O)[C@H](Cc1ccccc1)NC(=O)CNC(=O)CNC(=O)CCOCCOCCOCCOCCOCCOCCNC(=O)CCN1C(=O)C=CC1=O [MI-6PEG-GGFL-D1] ({Propanoyl(3-maleimido)-PEG6}-GGFL-X7) | – | – | – | – | – | – | +11% | – | +19% | +19% | 120 | 80 | 73.5 | 69.5 | 82.5 | 86.7 | 1.4 | 1181.64 | 1485.2 | 766.16 | colo320 (colorectal cancer cell) mean tumor volume (mm^3) [7, 19]: 900.6 mm^3; Mouse weight (%) [7, 21]: +19%; colo320 (colorectal cancer cell) growth rate (%) [7, 21]: 766.16%; colo320 (colorectal cancer cell) mean tumor volume (mm^3) [7, 21]: 900.6 mm^3; colo320 (colorectal cancer cell) growth rate (%) [7, 20]: 766.16%; colo320 (colorectal cancer cell) mean tumor volume (mm^3) [7, 20]: 900.6 mm^3
